# Paper PMC3510022 (Molecular Biology of the Cell, 2012)
# T1: purified Vps33 (S. cerevisiae, UniProt P20795 1-691)
# T1 sequence: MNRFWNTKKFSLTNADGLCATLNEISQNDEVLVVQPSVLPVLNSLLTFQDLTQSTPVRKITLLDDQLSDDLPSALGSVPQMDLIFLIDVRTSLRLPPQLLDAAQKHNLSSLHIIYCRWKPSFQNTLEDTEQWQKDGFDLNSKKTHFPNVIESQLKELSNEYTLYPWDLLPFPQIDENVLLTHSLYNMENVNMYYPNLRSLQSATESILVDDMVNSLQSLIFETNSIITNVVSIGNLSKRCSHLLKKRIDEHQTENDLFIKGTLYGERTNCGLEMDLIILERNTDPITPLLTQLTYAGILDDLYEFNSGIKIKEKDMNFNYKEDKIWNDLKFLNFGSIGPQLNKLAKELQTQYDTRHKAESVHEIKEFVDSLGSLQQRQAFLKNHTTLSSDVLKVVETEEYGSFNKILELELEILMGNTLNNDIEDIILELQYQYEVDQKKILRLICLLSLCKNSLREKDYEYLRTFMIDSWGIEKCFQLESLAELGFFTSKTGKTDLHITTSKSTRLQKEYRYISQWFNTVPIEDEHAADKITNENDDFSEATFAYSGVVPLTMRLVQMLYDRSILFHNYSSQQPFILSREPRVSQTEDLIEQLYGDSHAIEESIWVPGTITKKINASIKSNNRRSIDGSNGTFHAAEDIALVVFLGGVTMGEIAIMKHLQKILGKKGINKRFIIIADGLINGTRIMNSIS
# T2: His6-Sec22 cytoplasmic domain (UniProt P22214 1-192)
# T2 sequence: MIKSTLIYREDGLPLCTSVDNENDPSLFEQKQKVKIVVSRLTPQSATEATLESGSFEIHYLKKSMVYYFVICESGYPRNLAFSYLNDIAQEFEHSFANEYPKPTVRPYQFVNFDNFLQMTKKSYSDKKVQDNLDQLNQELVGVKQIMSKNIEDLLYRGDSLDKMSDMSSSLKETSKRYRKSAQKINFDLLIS
# T3: His6-Vam7 (S. cerevisiae, UniProt P32912 1-316)
# T3 sequence: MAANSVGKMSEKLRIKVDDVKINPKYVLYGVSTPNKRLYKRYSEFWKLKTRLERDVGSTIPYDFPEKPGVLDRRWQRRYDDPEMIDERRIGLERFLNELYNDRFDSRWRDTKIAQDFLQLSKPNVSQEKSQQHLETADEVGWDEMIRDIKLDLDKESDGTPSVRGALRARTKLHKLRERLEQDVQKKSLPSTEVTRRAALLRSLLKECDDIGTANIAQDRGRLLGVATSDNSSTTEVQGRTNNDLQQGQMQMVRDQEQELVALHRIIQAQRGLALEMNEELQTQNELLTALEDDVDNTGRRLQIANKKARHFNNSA
# B1: minimal SNARE complex lacking the N-terminal domains of Vam3 and Vam7 (complex)
# chain 1: SQEELDFQTIIHQERSQQIGRIHTAVQEVNAIFHQLGSLVKEQGEQVTTIDENISHLHDNMQNANKQLTRADQHQRDRNKCGK
# chain 2: PSTEVTRRAALLRSLLKECDDIGTANIAQDRGRLLGVATSDNSSTTEVQGRTNNDLQQGQMQMVRDQEQELVALHRIIQAQRGLALEMNEELQTQNELLTALEDDVDNTGRRLQIANKKARHFNNSA
# chain 3: SSLLISYESDFKTTLEQAKASLAEAPSQPLSQRNTTLKHVEQQQDELFDLLDQMDVEVNNSIGDASERATYKAKLREWKKTIQSDIKRPLQSLVDSGDRDRLFGDLNASNIDDDQRQQLLSNHAILQKSGDRLKDASRIANETEGIGSQIMMDLRSQRETLENARQTLFQADSYVDKSIKTLKTMTRRLVANK
# chain 4: MKRFNVSYVEVIKNGETISSCFQPFQKNENYGTITSANEQITPVIFHNLIMDMVLPKVVPIKGNKVTKMSMNLIDGFDCFYSTDDHDPKTVYVCFTLVDMPKILPIRILSGLQEYESNATNELLSSHVGQILDSFHEELVEYRNQTLNSSGNGQSSNGNGQNTISDIGDATEDQIKDVIQIMNDNIDKFLERQERVSLLVDKTSQLNSSSNKFRRKAVNIKEIMWWQKVKN
# B2: His6-Nyv1 cytoplasmic domain (domain or fragment)
# chain: B1 chain 4
# B3: Vam3 SNARE domain (residues 182–264) fused C-terminally to GST (domain or fragment)
# chain: B1 chain 1
# B4: His7-MBP-Vti1 cytoplasmic domain (domain or fragment)
# chain: B1 chain 3
# B5: GST-Sed5 SNARE domain (residues 170–319) (domain or fragment)
# chain: ANKDRWQKLTTDTGHAPADDQTQSNHAADLTTYNNSNPFMTSLLDESSEKNNNSSNQGELSFPQNDSQLMLMEEGQLSNNVYLQERNRAVETIESTIQEVGNLFQQLASMVQEQGEVIQRIDANVDDIDLNISGAQRELLKYFDRIKSNR
# B6: His6-Bet1 cytoplasmic domain (domain or fragment)
# chain: MSSRFAGGNAYQRDTGRTQLFGPADGSNSLDDNVSSALGSTDKLDYSQSTLASLESQSEEQMGAMGQRIKALKSLSLKMGDEIRGSNQTIDQLGDTFHNTSVKLKRTFGNMMEMARR
# B7: Vam3 cytoplasmic domain (residues 1–264) fused C-terminally to GST (domain or fragment)
# chain: MSFFDIEAQSSKGNSQQEPQFSTNQKTKELSNLIETFAEQSRVLEKECTKIGSKRDSKELRYKIETELIPNCTSVRDKIESNILIHQNGKLSADFKNLKTKYQSLQQSYNQRKSLFPLKTPISPGTSKERKDIHPRTEAVRQDPESSYISIKVNEQSPLLHNEGQHQLQLQEEQEQQQQGLSQEELDFQTIIHQERSQQIGRIHTAVQEVNAIFHQLGSLVKEQGEQVTTIDENISHLHDNMQNANKQLTRADQHQRDRNKCGK
# Columns and labels:
# Experiment in all cases: pull-down
# purified Vps33 = target: T1, purified Vps33
# [1] = target: B7
# [2] = target: B4
# [3] = target: B2
# [4] = target: T2, His6-Sec22 cytoplasmic domain
# [5] = target: B5
# His6-Vam7 = target: T3, His6-Vam7
binder,measurement,setting,value
B1,Kd,purified Vps33,2800 nM
B2,binding result,[1],binds
B3,binding result,[2],binds
same,binding result,[3],binds
B4,binding result,[1],binds
B5,binding result,[4],binds
B6,binding result,[5],binds
B7,binding result,His6-Vam7,binds
